# Tests used:
# [1] = molecular target: Encapsulin–SpyTag (Myxococcus xanthus | Streptococcus pyogenes) (UniProt Q1D6H4); test: SEC-MALS
# [2] = molecular target: human ACE2-hFc fusion protein (human) (UniProt Q9BYF1); test: SPR
Substance,stoichiometry N [1],kon [2],per cent reduction of binding after four weeks at 37 °C [2],per cent reduction of binding after two weeks at 37 °C [2]
Encapsulin–SpyTag (from UniProt Q1D6H4 1-287),180,–,–,–
Encapsulin–mRBD nanoparticle (from UniProt Q1D6H4;P0DTC2) (complex),–,2.58e+06 M⁻¹ s⁻¹,36 per cent,1 per cent
